Measured values taken from article PMC6684389.

Molecular target: YTHDC1 YTH domain (UniProt Q96MU7 345-509)
Assay: MST

With AAAGGACGUGG (ssRNA) [probe 2] the Kd was 16.9 µM.

AAAGGACGUGG (ssRNA, m6A at position 6) [probe 1] gave a Kd of 0.39 µM.
